Results published in patent US7202329B2, “Tsg101-GAGp6 interaction and use thereof” (priority 2001, dated 2007).

How the values were obtained:
[1] = target: ROCK1 (Homo sapiens, UniProt Q13464); conditions: cited from earlier work
[2] = target: T1, Full length Tsg101 (Homo sapiens, UniProt Q99816); assay: Two-hybrid liquid culture β-galactosidase assay; type: cell-based; conditions: p6 point mutants
T1 construct: expressed in transfected cells; host or cells: Saccharomyces cerevisiae strain Y189
T1 sequence (Q99816 1-390): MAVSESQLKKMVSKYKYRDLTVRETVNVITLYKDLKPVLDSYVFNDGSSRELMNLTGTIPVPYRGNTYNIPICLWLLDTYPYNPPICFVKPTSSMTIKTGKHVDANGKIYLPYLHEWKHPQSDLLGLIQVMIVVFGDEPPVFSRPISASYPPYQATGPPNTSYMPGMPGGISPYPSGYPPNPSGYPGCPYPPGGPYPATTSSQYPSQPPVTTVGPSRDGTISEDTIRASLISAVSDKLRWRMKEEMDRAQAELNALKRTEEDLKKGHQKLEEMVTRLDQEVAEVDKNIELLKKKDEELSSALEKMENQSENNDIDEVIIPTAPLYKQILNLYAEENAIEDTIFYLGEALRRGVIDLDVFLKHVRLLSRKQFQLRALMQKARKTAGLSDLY
Method: The interactions between Tsg101 and wild-type GAGp6 (WT) or the GAGp6 PTAP mutants were further quantitated by performing liquid culture β-galactosidase assays. Cultures were grown overnight in synthetic media (−Leu, −Trp, +glucose) in 96 well plates, normalized for optical density, and lysed by addition of 6× lysis/substrate solution in 6× Z-buffer (60 mM KCl, 6 mM MgSO4, 360 mM Na2HPO4, 240 mM NaH2PO4, 6 mg/ml CPRG, 0.12U/ml lyticase, 0.075% NP-40). Cultures were incubated for 2 hr at 37° C., clarified by centrifugation, and the optical absorbance of each supernatant was measured (575 nm). Full length Tsg101 bound wild-type p6 in the two-hybrid liquid culture assay, resulting in high levels of β-galactosidase activity (>300-fold over background). […] Each of these point mutations also arrests HIV-1 budding at a late stage (Huang et al. 1995).

[3] = target: T2, Tsg101 (Homo sapiens, UniProt Q99816); assay: Yeast two-hybrid filter lift assay for β-Gal activity (Tsg101 / GAGp6 interaction); type: cell-based; parameters: key to Interactions Between Tsg101 and GAGp6 (β-Gal activity, filter lift): +: Positive β-Gal activity indicates that the GAGp6 wild type or mutant protein interacts with Tsg101; conditions: for ability to bind Tsg101 protein (in words): yeast two-hybrid, GAGp6 point mutants
T2 construct: expressed in transfected cells; host or cells: Saccharomyces cerevisiae strain Y189
T2 sequence (Q99816 1-390): T1 sequence (Q99816 1-390)
Excerpt: Yeast two-hybrid assays were utilized to determine the effect of amino acid substitution mutations in the PTAP motif of HIV GAGp6 on the interaction between Tsg101 and GAGp6. To prepare a yeast two-hybrid activation domain-Tsg101 construct, a DNA fragment encompassing the full-length coding sequence for Tsg101 according to GenBank Accession No. U82130 was obtained by PCR from a human fetal brain cDNA library and cloned into the EcoRI/Pst1 sites of the activation domain parent plasmid GADpN2 (LEU2, CEN4, ARS1, ADH1p-SV40NLS-GAL4 (768–881)-MCS (multiple cloning site)-PGK1t, AmpR, ColE1_ori).
To prepare the yeast two-hybrid DNA binding domain-HIV1 GAGp6 construct, a DNA fragment corresponding to the HIV1 GAGp6 peptide derived from the HIV1.NL43 strain GAG protein was obtained by PCR from the NL43 containing plasmid R9≢apa and was cloned into the EcoRI/Sal1 sites of the binding domain parent plasmid pGBT.Q.
The following amino acid substitution mutations were introduced by PCR into the HIV1 GAGp6 sequence in the yeast two-hybrid binding domain-HIV1 GAGp6 construct described above. The mutations were verified by DNA sequence analysis.
To test the effect of the mutations, yeast cells of the strain Y189 purchased from Clontech (ura3-52 his3*200 ade2-101 trp1-901 leu2-3,112 met gal4 gal80 URA3::GAL1p-lacZ) were co-transformed with the activation domain-Tsg101 construct and one of the binding domain-mutant GAGp6 constructs or the binding domain-wild type GAGp6 construct. Filter lift assays for β-Gal activity were conducted by lifting the transformed yeast colonies with filters, lysing the yeast cells by freezing and thawing, and contacting the lysed cells with X-Gal. […] All binding domain constructs were also tested for self-activation of β-Gal activity.

[4] = target: T3, interaction between GST-p6 and myc-Tsg101(1-207) (Homo sapiens, UniProt Q99816); assay: In vitro binding assay: competition of p6(1-14) with GST-p6 for myc-Tsg101(1-207)
T3 construct: Drosophila S2 cell lysate myc-tagged Tsg101 (residues 1–207); made in house; host or cells: Drosophila S2 cells (used as lysate)
T3 sequence (Q99816 1-207): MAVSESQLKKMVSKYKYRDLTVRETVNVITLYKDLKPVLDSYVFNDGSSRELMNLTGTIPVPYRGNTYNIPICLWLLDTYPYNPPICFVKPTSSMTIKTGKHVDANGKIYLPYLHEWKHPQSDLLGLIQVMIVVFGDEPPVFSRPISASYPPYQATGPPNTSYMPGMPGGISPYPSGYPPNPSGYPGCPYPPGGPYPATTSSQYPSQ
Method: A fusion protein with a GST tag fused to the HIV-1 GAGp6 domain was recombinantly expressed and purified by chromatography. In addition, a GAGp6 peptide containing the first 14 amino acid residues (“p6(1–14)”) was synthesized chemically by standard peptide synthesis methods. The peptide was purified by conventional protein purification techniques, e.g., by chromatography.
Nunc/Nalgene Maxisorp plates were incubated overnight at 4° C. or for 1–2 hrs at room temperature in 100 μl of a protein coupling solution containing purified GST-p6 and 50 mM Carbonate, pH=9.6. This allowed the attachment of the GST-p6 fusion protein to the plates. Liquids in the plates were then emptied and wells filled with 400 μl/well of a blocking buffer (SuperBlock; Pierce-Endogen, Rockford, Ill.). […]
Plates were then washed 4×100 μl with 1× PBST solution (Invitrogen; Carlsbad, Calif.). […] Plates were then read on a Packard Fusion instrument at an excitation wavelength of 325 nm and an emission wavelength of 420 nm. […]
Different concentrations of the p6(1–14) peptide were tested, and the relative intensities of the fluorescence signals obtained at different concentrations were plotted against the peptide concentrations. […]

Sequence of ROCK1 (Q13464 whole entry): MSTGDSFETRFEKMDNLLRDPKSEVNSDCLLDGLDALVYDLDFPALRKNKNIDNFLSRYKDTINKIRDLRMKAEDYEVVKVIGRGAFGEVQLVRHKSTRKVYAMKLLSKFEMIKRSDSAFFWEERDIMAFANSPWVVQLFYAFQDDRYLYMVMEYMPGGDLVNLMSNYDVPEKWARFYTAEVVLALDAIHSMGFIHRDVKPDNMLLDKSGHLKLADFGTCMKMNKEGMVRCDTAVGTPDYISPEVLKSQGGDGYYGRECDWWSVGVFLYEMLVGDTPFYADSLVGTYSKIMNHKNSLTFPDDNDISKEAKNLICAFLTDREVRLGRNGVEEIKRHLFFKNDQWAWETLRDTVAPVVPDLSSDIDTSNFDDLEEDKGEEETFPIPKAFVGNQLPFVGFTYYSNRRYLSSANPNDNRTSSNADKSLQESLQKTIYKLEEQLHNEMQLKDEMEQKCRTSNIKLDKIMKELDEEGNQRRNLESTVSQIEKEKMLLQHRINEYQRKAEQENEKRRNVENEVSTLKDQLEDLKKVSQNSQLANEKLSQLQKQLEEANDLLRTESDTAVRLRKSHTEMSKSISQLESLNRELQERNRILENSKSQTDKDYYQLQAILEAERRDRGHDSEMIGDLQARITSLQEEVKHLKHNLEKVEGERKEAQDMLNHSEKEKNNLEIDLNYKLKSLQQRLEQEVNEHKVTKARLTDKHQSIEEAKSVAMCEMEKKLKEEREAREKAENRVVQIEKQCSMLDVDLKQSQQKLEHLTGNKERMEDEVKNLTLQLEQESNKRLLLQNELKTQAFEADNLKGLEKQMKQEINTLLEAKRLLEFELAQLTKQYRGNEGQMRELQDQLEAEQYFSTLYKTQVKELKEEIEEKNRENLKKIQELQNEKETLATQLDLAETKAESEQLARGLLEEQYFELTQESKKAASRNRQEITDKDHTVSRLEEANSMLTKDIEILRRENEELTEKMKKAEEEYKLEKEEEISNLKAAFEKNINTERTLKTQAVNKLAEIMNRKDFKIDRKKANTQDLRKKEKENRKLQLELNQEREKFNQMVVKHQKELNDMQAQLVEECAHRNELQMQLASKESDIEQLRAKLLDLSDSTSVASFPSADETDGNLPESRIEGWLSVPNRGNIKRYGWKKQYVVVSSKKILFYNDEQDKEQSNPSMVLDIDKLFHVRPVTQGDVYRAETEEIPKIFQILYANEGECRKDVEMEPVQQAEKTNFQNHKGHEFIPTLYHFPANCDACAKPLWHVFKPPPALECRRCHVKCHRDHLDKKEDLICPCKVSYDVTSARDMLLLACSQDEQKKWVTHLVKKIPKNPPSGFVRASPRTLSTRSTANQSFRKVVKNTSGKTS

| Compound | β-galactosidase activity (in words) [2] | ability to bind Tsg101 protein (in words) [3] | other results |
| --- | --- | --- | --- |
| C[C@@H](N)[C@H]1CC[C@H](C(=O)Nc2ccncc2)CC1 [Y-27632, (+)-(R)-trans-4-(1-aminoethyl)-N-(4-pyridyl) cyclohexanecarboxamide] |  |  | selectivity for ROCK1 [1]: highly selective for ROCK1 |
| P6/A9R (LQSRPEPTRPPEESFRFGEETTTPSQKQEPIDKELYPLASLRSLFGSDPSSQ; left off: large carriers; small tags and cut ends) | reduced β-galactosidase activity to background levels | abolishes the GAGp6 binding affinity to Tsg101 |  |
| P6/E6G (LQSRPGPTAPPEESFRFGEETTTPSQKQEPIDKELYPLASLRSLFGSDPSSQ; left off: large carriers; small tags and cut ends) |  | did not result in the elimination of the Tsg101-GAGp6 interaction | Interactions Between Tsg101 and GAGp6 (β-Gal activity, filter lift) ([3]; yeast strain Y189 co-transformed with activation domain-Tsg101 construct and binding domain-GAGp6 construct): +; ability to bind Tsg101 protein (in words) ([3]; listed as E6G GAGp6 mutant): capable of binding Tsg101 protein |
| P6/P7L (LQSRPELTAPPEESFRFGEETTTPSQKQEPIDKELYPLASLRSLFGSDPSSQ; left off: large carriers; small tags and cut ends) | reduced β-galactosidase activity to background levels | abolishes the GAGp6 binding affinity to Tsg101 |  |
| P6/P10L (LQSRPEPTALPEESFRFGEETTTPSQKQEPIDKELYPLASLRSLFGSDPSSQ; left off: large carriers; small tags and cut ends) | reduced β-galactosidase activity to background levels | abolishes the GAGp6 binding affinity to Tsg101 |  |
| p6(1-14): chemically synthesized GAGp6 peptide containing the first 14 amino acid residues, includes the PTAP late domain motif (LQSRPEPTAPPEES) |  |  | inhibition of protein-protein interaction between GST-p6 and myc-Tsg101(1-207) ([4]; competitive inhibition curve, FIG. 2): capable of inhibiting; binding to the N-terminal portion of Tsg101 (amino acid residues 1–207) ([4]; includes the Tsg101 UEV domain): sufficient in binding |
